The supplement of paper PMC10724198
± gives the standard deviation of the averaged measurements.

Key:
[1] = system: Saccharomyces cerevisiae; experiment: protein stability index of tFT-peptide fusion (C-terminal peptide) (PSI (0-1 scale)); higher = more stable (slower turnover); conditions: genetic background: wild type; temperature: 30 C
[2] = system: Saccharomyces cerevisiae; experiment: as above
Method: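 MPS profiling in S. cerevisiae of the tFT-X12 degron library: putative degron peptides plus stable controls, 12 aa, fused to the C-terminus of a sfGFP-mCherry timer. Cells are FACS-sorted into 8 mCherry/sfGFP bins and deep-sequenced. PSI runs from 0 (unstable) to 1 (stable). Backgrounds are wild type, das1Δ and doa10Δ at 30 °C, and wild type, das1Δ, cdc34-1 and cdc53-1 at 37 °C; 2-3 technical replicates each.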

[3] = genetic background: cdc34-1, temperature: 37 C
[4] = genetic background: cdc53-1, temperature: 37 C
[5] = genetic background: das1 deletion, temperature: 30 C
[6] = genetic background: das1 deletion, temperature: 37 C
[7] = genetic background: doa10 deletion, temperature: 30 C
[8] = genetic background: wild type, temperature: 30 C
[9] = genetic background: wild type, temperature: 37 C
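Note: PSI is a weighted mean of sequencing reads over stability bins, variants kept only with over 10 reads, mCherry proximal and sfGFP distal, peptide attached via GGGS linker.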

| Sequence | protein stability index [1] | protein stability index [2, 3] | protein stability index [2, 4] | protein stability index [2, 5] | protein stability index [2, 6] | protein stability index [2, 7] | protein stability index [2, 8] | protein stability index [2, 9] |
| --- | --- | --- | --- | --- | --- | --- | --- | --- |
| WFCYFSLYVFLL | 0.214 ± 0.095 | 0.0995 ± 0.02 | 0.149 ± 0.0067 | 0.168 ± 0.027 | 0.24 ± 0.0052 | 0.133 ± 0.012 | 0.105 ± 0.019 | 0.153 ± 0.026 |
| WFFRCLFLLSLF | 0.202 ± 0.034 | 0.457 ± 0.0083 | 0.544 ± 0.028 | 0.517 ± 0.019 | 0.601 ± 0.011 | 0.188 ± 0.015 | 0.178 ± 0.026 | 0.23 ± 0.025 |
| WFIFTITSVAGL | 0.0312 ± 0.023 | 0.0307 ± 0.009 | 0.0301 ± 0.0014 | 0.0273 ± 0.0031 | 0.0442 ± 0.015 | 0.0226 ± 0.0015 | 0.0205 ± 0.0016 | 0.0325 ± 0.011 |
| WFLRLVGAVFAL | 0.447 ± 0.027 | 0.539 ± 0.012 | 0.624 ± 0.039 | 0.528 ± 0.016 | 0.621 ± 0.018 | 0.46 ± 0.0085 | 0.485 ± 0.025 | 0.551 ± 0.032 |
| WFVLYAEVMGFW | 0.349 ± 0.0052 | 0.205 ± 0.041 | 0.325 ± 0.043 | 0.241 ± 0.037 | 0.491 ± 0.09 | 0.207 ± 0.029 | 0.231 ± 0.042 | 0.409 ± 0.024 |
| WGRAADRRRRLG | 0.346 ± 0.025 | 0.633 ± 0.054 | 0.731 ± 0.039 | 0.628 ± 0.011 | 0.7658 ± 0.0054 | 0.152 ± 0.0034 | 0.207 ± 0.013 | 0.344 ± 0.018 |
| WGRENLTRVKLE | 0.372 ± 0.061 | 0.70486 ± 0.00049 | 0.769 ± 0.0032 | 0.618 ± 0.049 | 0.725 ± 0.0082 | 0.207 ± 0.015 | 0.2 ± 0.017 | 0.424 ± 0.035 |
| WILIGVRFSCFG | 0.299 ± 0.0058 | 0.109 ± 0.0085 | 0.233 ± 0.069 | 0.189 ± 0.034 | 0.339 ± 0.015 | 0.159 ± 0.013 | 0.165 ± 0.021 | 0.276 ± 0.018 |
| WISDRCPSVLCY | 0.251 ± 0.015 | 0.0407 ± 0.0022 | 0.0838 ± 0.0009 | 0.185 ± 0.025 | 0.206 ± 0.011 | 0.143 ± 0.011 | 0.157 ± 0.028 | 0.184 ± 0.017 |
| WLPFFPLSLRGV | 0.497 ± 0.2 | 0.321 ± 0.012 | 0.317 ± 0.011 | 0.412 ± 0.027 | 0.5374 ± 0.0038 | 0.63 ± 0.0096 | 0.436 ± 0.048 | 0.5 ± 0.0093 |
| WLWFVGCLAAPL | 0.541 ± 0.07 | 0.63 ± 0.032 | 0.662 ± 0.066 | 0.529 ± 0.024 | 0.6316 ± 0.001 | 0.523 ± 0.021 | 0.536 ± 0.04 | 0.5957 ± 0.0016 |
| WQGLSGSPILVI | 0.402 ± 0.016 | 0.197 ± 0.012 | 0.248 ± 0.015 | 0.247 ± 0.037 | 0.3829 ± 0.0012 | 0.206 ± 0.0061 | 0.241 ± 0.048 | 0.334 ± 0.013 |
| WQILVRLIDFYT | 0.436 ± 0.0055 | 0.453 ± 0.011 | 0.446 ± 0.023 | 0.345 ± 0.034 | 0.5107 ± 0.0039 | 0.311 ± 0.0072 | 0.338 ± 0.0092 | 0.4889 ± 0.00098 |
| WSSWFLWVIFRL | 0.348 ± 0.02 | 0.176 ± 0.011 | 0.173 ± 0.023 | 0.34 ± 0.035 | 0.433 ± 0.056 | 0.459 ± 0.0077 | 0.289 ± 0.035 | 0.288 ± 0.035 |
| WSWCLDVVCFTS | 0.471 ± 0.0059 | 0.498 ± 0.036 | 0.547 ± 0.027 | 0.45 ± 0.021 | 0.563 ± 0.019 | 0.446 ± 0.011 | 0.439 ± 0.011 | 0.531 ± 0.024 |
| WVGWVVVLGCVG | 0.489 ± 0.013 | 0.373 ± 0.027 | 0.42 ± 0.012 | 0.29 ± 0.026 | 0.47 ± 0.013 | 0.25152 ± 0.00025 | 0.282 ± 0.018 | 0.449 ± 0.022 |
| WVRIIIKLRASL | 0.315 ± 0.041 | 0.444 ± 0.011 | 0.4476 ± 0.0035 | 0.34 ± 0.021 | 0.41 ± 0.0083 | 0.274 ± 0.0048 | 0.253 ± 0.011 | 0.345 ± 0.034 |
| WVSFFILYCVYR | 0.232 ± 0.03 | 0.274 ± 0.016 | 0.345 ± 0.024 | 0.253 ± 0.04 | 0.445 ± 0.017 | 0.23 ± 0.0055 | 0.237 ± 0.018 | 0.378 ± 0.011 |
| WWADRLVGVCIV | 0.491 ± 0.011 | 0.55 ± 0.034 | 0.539 ± 0.026 | 0.439 ± 0.024 | 0.587 ± 0.0076 | 0.38961 ± 2.3e-05 | 0.422 ± 0.023 | 0.5359 ± 0.00088 |

| Sequence | protein stability index [1] | protein stability index [2, 3] | protein stability index [2, 4] | protein stability index [2, 5] | protein stability index [2, 6] | protein stability index [2, 7] | protein stability index [2, 8] | protein stability index [2, 9] |
| --- | --- | --- | --- | --- | --- | --- | --- | --- |
| WYYTWKQLVMIV | 0.0294 ± 0.022 | 0.0845 ± 0.01 | 0.148 ± 0.0062 | 0.106 ± 0.023 | 0.186 ± 0.0072 | 0.0276 ± 0.0037 | 0.0263 ± 0.0054 | 0.0433 ± 0.021 |
| YARFWYSKAFIC | 0.2 ± 0.013 | 0.455 ± 0.048 | 0.555 ± 0.011 | 0.581 ± 0.033 | 0.694 ± 0.025 | 0.12 ± 0.023 | 0.115 ± 0.012 | 0.169 ± 0.0034 |
| YCILGSYRLCVG | 0.36 ± 0.0049 | 0.337 ± 0.037 | 0.434 ± 0.073 | 0.259 ± 0.033 | 0.447 ± 0.018 | 0.2321 ± 0.00024 | 0.252 ± 0.033 | 0.427 ± 0.012 |
| YCSIQIQLVYGI | 0.424 ± 0.023 | 0.341 ± 0.0037 | 0.4103 ± 0.0034 | 0.302 ± 0.025 | 0.441 ± 0.0063 | 0.301 ± 0.0082 | 0.312 ± 0.013 | 0.396 ± 0.011 |
| YFFVCYFSLLVF | 0.177 ± 0.0081 | 0.0832 ± 0.019 | 0.139 ± 0.025 | 0.14 ± 0.032 | 0.231 ± 0.012 | 0.0967 ± 0.0036 | 0.119 ± 0.016 | 0.168 ± 0.03 |
| YFYIRLGIAYMM | 0.275 ± 0.027 | 0.421 ± 0.037 | 0.511 ± 0.056 | 0.436 ± 0.026 | 0.503 ± 0.019 | 0.197 ± 0.013 | 0.206 ± 0.019 | 0.264 ± 0.015 |
| YILRLMMEGICL | 0.4198 ± 0.0029 | 0.497 ± 0.012 | 0.545 ± 0.036 | 0.416 ± 0.033 | 0.48 ± 0.019 | 0.422 ± 0.038 | 0.409 ± 0.0083 | 0.464 ± 0.022 |
| YLFFVCLHLKAG | 0.302 ± 0.044 | 0.233 ± 0.03 | 0.335 ± 0.018 | 0.227 ± 0.031 | 0.417 ± 0.013 | 0.174 ± 0.0063 | 0.206 ± 0.018 | 0.3494 ± 0.00053 |
| YLRVRRPGSALV | 0.654 ± 0.23 | 0.7087 ± 0.0013 | 0.769 ± 0.028 | 0.63 ± 0.022 | 0.7643 ± 0.0014 | 0.629 ± 0.035 | 0.624 ± 0.0081 | 0.7277 ± 0.0017 |
| YNKIRNNEKKMT | 0.36 ± 0.017 | 0.664 ± 0.084 | 0.696 ± 0.026 | 0.674 ± 0.073 | 0.7121 ± 0.0016 | 0.1897 ± 0.0018 | 0.27 ± 0.055 | 0.457 ± 0.043 |
| YPSCPINFICLC | 0.417 ± 0.035 | 0.618 ± 0.0088 | 0.6992 ± 0.0053 | 0.585 ± 0.017 | 0.685 ± 0.01 | 0.29 ± 0.0056 | 0.308 ± 0.037 | 0.499 ± 0.0051 |
| YRNVLLVLNYWS | 0.491 ± 0.0064 | 0.447 ± 0.076 | 0.368 ± 0.029 | 0.428 ± 0.031 | 0.544 ± 0.0087 | 0.518 ± 0.0072 | 0.406 ± 0.022 | 0.51 ± 0.026 |
| YSIHYLRFFSLF | 0.133 ± 0.034 | 0.4734 ± 0.00049 | 0.6669 ± 0.0066 | 0.6143 ± 0.0048 | 0.726 ± 0.014 | 0.0685 ± 0.011 | 0.0874 ± 0.015 | 0.0998 ± 0.011 |
| YSMLGKLVRLVT | 0.285 ± 0.033 | 0.553 ± 0.05 | 0.662 ± 0.02 | 0.512 ± 0.025 | 0.63036 ± 0.00022 | 0.164 ± 0.004 | 0.2 ± 0.013 | 0.374 ± 0.015 |
| YVCLVWHRNFFS | 0.259 ± 0.0039 | 0.617 ± 0.014 | 0.704 ± 0.019 | 0.605 ± 0.011 | 0.73 ± 0.048 | 0.14 ± 0.0063 | 0.155 ± 0.025 | 0.228 ± 0.076 |
| YVSSFSLVVLLS | 0.228 ± 0.029 | 0.425 ± 0.0077 | 0.478 ± 0.024 | 0.377 ± 0.033 | 0.506 ± 0.0069 | 0.108 ± 0.015 | 0.125 ± 0.014 | 0.217 ± 0.017 |
| YVVCFFFKLFYF | 0.382 ± 0.046 | 0.271 ± 0.012 | 0.364 ± 0.024 | 0.299 ± 0.025 | 0.4172 ± 0.0025 | 0.256 ± 0.0065 | 0.244 ± 0.025 | 0.341 ± 0.024 |
| YVVYLQVCWMRS | 0.227 ± 0.0044 | 0.072 ± 0.025 | 0.206 ± 0.076 | 0.134 ± 0.019 | 0.23 ± 0.0061 | 0.0911 ± 0.019 | 0.104 ± 0.035 | 0.186 ± 0.024 |
